From patent US6664048 (MAX PLANCK GESELLSCHAFT ZUR FURDERUNG DER WISSENSCHAFTEN E V, dated 2003)

Molecular target: T1, LexA protein expressed from pBTM117c (UniProt P0A7C2 1-202)
T1 construct: range 1-220
T1 sequence (looked up): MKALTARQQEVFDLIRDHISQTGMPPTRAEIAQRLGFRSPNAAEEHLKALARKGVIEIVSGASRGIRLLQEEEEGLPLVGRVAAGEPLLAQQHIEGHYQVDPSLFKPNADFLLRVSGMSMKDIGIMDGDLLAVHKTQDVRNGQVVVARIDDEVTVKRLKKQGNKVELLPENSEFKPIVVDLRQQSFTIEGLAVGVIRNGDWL
Experiment: yeast two-hybrid in L40cc, growth on SD-leu-trp-his and β-galactosidase membrane assay
Text: Detection of Clones Expressing Known Interacting Proteins From False Positives Using the Improved Two-hybrid System Pairs of the yeast two-hybrid plasmids pBTM117cSIM1 & pGAD427-ARNT, pBTM117c & pGAD427 and pBTM117c-HIP1 & pGAD427 were transformed into the yeast strain L40cc, and Trp+Leu+ transformants that contained at least one of each of the two plasmids were selected on SD-leu-trp plates. Two transformants from each transformation were investigated for the presence of protein-protein interactions by testing the ability of the yeast cells to grow on SD-leu-trp, SD-leu-trp-his, SD-leu+CAN and SD-trp+CHX plates and by the β-galactosidase membrane assay (Breeden and Nasmyth, 1985). […] After selection of the yeast strains harboring the different combinations of the two-hybrid plasmids on SD-leu+CAN and SD-trp+CHX the resulting strains were also analyzed by the β-galactosidase assay. After incubating the membrane containing all three strains on SD-trp+CHX medium only progeny of the yeast strain that originally harbored both the plasmids pBTM117c-HIP1 & pGAD427 yet which had lost the pGAD427 plasmid through counterselection turned blue after incubating in X-Gal solution. […]

binding result: no binding
B1: GAL4ad protein expressed from pGAD427 (other, yeast, UniProt P04386 768-881, looked up)
chain: ANFNQSGNIADSSLSFTFTNSSNGPNLITTQTNSQALSQPIASSNVHDNFMNNEITASKIDDGNNSKPLSPGWTDQTAYNAFGITTGMFNTTTMDDVYNYLFDDEDTPPNPKKE
notes: range 768-881
